This is an account of results in the supplement of paper PMC7877785.

This data set can be described thus: self-splicing fitness, log relative to wild type (ln ratio); higher = more splicing; Tetrahymena group I intron in knt gene, E. coli kanamycin selection, DiMSum; sequences stand for … in CUCUCU…GGAGGGAAAAGUUAUCAGGCAUGCACCUGGUAGCUAGUCUUUAAACCAAUAGAUUGCAUCGGUUUAAAAGGCAAGACCGUCAAAUUGCGGGAAAGGGGUCAACAGCCGUUCAGUACCAAGUCUCAGGGGAAACUUUGAGAUGGCCUUGCAAAGGGUAUGGUAAUAAGCUGACGGACAUGGUCCUAACCACGCAGCCAAGUCCUAAGUCAACAGAUCUUCUGUUGAUAUGGAUGCAGUUCACAGACUAAAUGUCGGUCGGGGAAGAUGUAUUCUUCUCAUAAGAUAUAGUCGGACCUCUCCUUAAUGGGAGCUAGCGGAUGAAGUGAUGCAACACUGGAGCCGCUGGGAACUAAUUUGUAUGCGAAAGUAUAUUGAUUAGUUUUGGAGUACUCGUGGUCG
Summed up: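 Library with all eight P1ex-region intron nucleotides randomised, intron inside the knt kanamycin-resistance gene on pET-22b(+), in E. coli BL21(DE3). Cells grew overnight at 37°C or 30°C on LB agar with or without 25 μg/mL kanamycin (plus 100 μg/mL carbenicillin, 50 μM IPTG, 0.2% rhamnose), in six replicate transformations. Pooled colonies were amplicon-sequenced on Illumina HiSeq 2500. DiMSum fitness is the error-weighted combination of wild-type-normalised replicate fold changes, kanamycin versus none.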

± gives the uncertainty stated by the source.

Consider GGUUAGCAAUAUUACGAUAC, for which the “self-splicing fitness (ln)” value was -0.314 ± 0.22 (30 °C) and -0.0363 ± 0.19 (37 °C).
With GGUUAGCAAUAUUACGAUAU, the “self-splicing fitness (ln)” value (30 °C) was -0.423 ± 0.1 and the “self-splicing fitness (ln)” value (37 °C) is -0.137 ± 0.13.
For GGUUAGCAAUAUUACGCAUA the same measures were -0.622 ± 0.12 and -0.182 ± 0.14.
Regarding GGUUAGCAAUAUUACGCCAA, the “self-splicing fitness (ln)” value reads like this: (30 °C) -1.42 ± 0.34; (37 °C) -2.43 ± 0.33.
For GGUUAGCAAUAUUACGCGGA the same measures were -1.4 ± 0.31 and -1.34 ± 0.23.
For GGUUAGCAAUAUUACGGAAU the same measures were -2.21 ± 0.25 and -1.01 ± 0.25.
For GGUUAGCAAUAUUACGGGCC the same measures were -2.52 ± 0.27 and -1.47 ± 0.29.
Turning to GGUUAGCAAUAUUACGGGGA, the “self-splicing fitness (ln)” value was -2.05 ± 0.25 (30 °C) and -2.49 ± 0.29 (37 °C).
Consider GGUUAGCAAUAUUACGGUCU, for which the “self-splicing fitness (ln)” value reads like this: (30 °C) -0.263 ± 0.12; (37 °C) 0.162 ± 0.15.
For the sequence GGUUAGCAAUAUUACGGUGA, the “self-splicing fitness (ln)” value was -1.49 ± 0.13 (30 °C) and -0.0195 ± 0.13 (37 °C).
For the sequence GGUUAGCAAUAUUACGGUUC, the “self-splicing fitness (ln)” value is, setting by setting: (30 °C) -0.571 ± 0.086; (37 °C) -0.114 ± 0.11.
For GGUUAGCAAUAUUACGUACG the same measures were -0.392 ± 0.14 and 0.0535 ± 0.18.
For GGUUAGCAAUAUUACGUAUG, the “self-splicing fitness (ln)” value by setting is: (30 °C) -3.18 ± 0.17; (37 °C) -0.52 ± 0.15.
For GGUUAGCAAUAUUACGUCCU the same measures were -1.2 ± 0.12 and -0.367 ± 0.12.
Regarding GGUUAGCAAUAUUACGUUUC, the “self-splicing fitness (ln)” value reads like this: (30 °C) -3.04 ± 0.21; (37 °C) -0.645 ± 0.18.
For GUAAAGCAAUAUUACGACUU, the “self-splicing fitness (ln)” value was 0.245 ± 0.1 (30 °C) and 0.464 ± 0.12 (37 °C).
For GUAAAGCAAUAUUACGAGUA the same measures were -1.11 ± 0.12 and -0.624 ± 0.14.
For GUAAAGCAAUAUUACGCAUA the same measures were -1.1 ± 0.098 and -0.728 ± 0.11.
On to GUAAAGCAAUAUUACGCCCU, for which the “self-splicing fitness (ln)” value is 0.35 ± 0.081 (30 °C) and 0.185 ± 0.081 (37 °C).
For GUAAAGCAAUAUUACGCUAC the same measures were -4.2 ± 0.32 and -1.87 ± 0.37.
In the case of GUAAAGCAAUAUUACGCUUG, the “self-splicing fitness (ln)” value is, setting by setting: (30 °C) -2.17 ± 0.15; (37 °C) -1.12 ± 0.17.
Regarding GUAAAGCAAUAUUACGGACC, the “self-splicing fitness (ln)” value runs as follows: (30 °C) -1.15 ± 0.13; (37 °C) -0.652 ± 0.24.
For GUAAAGCAAUAUUACGGAGC the same measures were -2.47 ± 0.2 and -1.71 ± 0.21.
For GUAAAGCAAUAUUACGGAUA the same measures were -2.72 ± 0.16 and -0.67 ± 0.12.
For the sequence GUAAAGCAAUAUUACGGCGA, the “self-splicing fitness (ln)” value (30 °C) was -0.00421 ± 0.11 and the “self-splicing fitness (ln)” value (37 °C) is -0.231 ± 0.17.
For GUAAAGCAAUAUUACGGGGU the same measures were -3.02 ± 0.19 and -2.25 ± 0.21.
For GUAAAGCAAUAUUACGGUAC the same measures were -1.61 ± 0.12 and -1.26 ± 0.18.
For GUAAAGCAAUAUUACGGUAG the same measures were -0.977 ± 0.054 and -1.37 ± 0.099.
Turning to GUAAAGCAAUAUUACGUCAC, the “self-splicing fitness (ln)” value is -2.16 ± 0.096 (30 °C) and -1.56 ± 0.12 (37 °C).
For GUAAAGCAAUAUUACGUCCA the same measures were -0.574 ± 0.088 and 0.0855 ± 0.12.
For GUAAAGCAAUAUUACGUGGG the same measures were -3.28 ± 0.18 and -2.91 ± 0.14.
For GUAAAGCAAUAUUACGUGUG the same measures were -1.34 ± 0.063 and -1 ± 0.088.
In the case of GUACAGCAAUAUUACGAAGA, the “self-splicing fitness (ln)” value is -2.52 ± 0.32 (30 °C) and -1.83 ± 0.28 (37 °C).
GUACAGCAAUAUUACGAAUG: the “self-splicing fitness (ln)” value was -3.54 ± 0.25 (30 °C) and -0.988 ± 0.18 (37 °C).
As for GUACAGCAAUAUUACGACGC, the “self-splicing fitness (ln)” value (30 °C) was -0.428 ± 0.092 and the “self-splicing fitness (ln)” value (37 °C) is -0.206 ± 0.1.
Regarding GUACAGCAAUAUUACGAGAC, the “self-splicing fitness (ln)” value was -2.09 ± 0.24 (30 °C) and -2.5 ± 0.28 (37 °C).
For GUACAGCAAUAUUACGAGGG the same measures were -3.21 ± 0.17 and -2.42 ± 0.2.
